Assay results published in article PMC5312596, “A novel Pfs38 protein complex on the surface of Plasmodium falciparum blood-stage merozoites” (Malaria Journal, 2017).

B1: recombinant Pfs38 (6-Cys domain, aa 153–328) (domain or fragment)
chain: KIPGCDFNADYKESTAITTFSNMSPRRVKVCDVYPKSGDFISLMCPSDYSIKPDGCFSNVYVKRYPNEEVKEEDRFNLNRKWDASKYNVVSIETVLKMNMITQGDKYSIFSKLPDVKDQVDFTCICQSNDEQDNLMMNVYINNTSYLTNNTRSIGVNKHSFSNSEIFERIEREEIS
notes: Pfs38, Plasmodium falciparum 6-Cys protein; 6-Cys domain aa 153-328, amplified from a codon-optimised synthetic gene (aa 22-328) and cloned in pET28b between NcoI and XhoI; Cloning in pET28b between NcoI and XhoI would give a C-terminal His6 (surmised); The forward primer adds a few residues (Met-Gly-Ser) before the insert (surmised from the primer); also called rPfs38

Key:
[1] = molecular target: T1, recombinant PfMSP-1_(65) (aa 1052–1664) (Plasmodium falciparum 3D7, UniProt Q8I0U8 1052-1664); assay: far-Western, overlay or dot blot; 1-5 µg recombinant protein separated by SDS-PAGE, blotted, denatured and renatured; membrane incubated with 2 µg/mL purified GLURP R2, Pfs38 or SERA-5 in 100 mM NaCl, 20 mM Tris pH 7.6, 0.5 mM EDTA, 10% glycerol, 1 mM DTT, 2 h at RT; detected with antisera to the soluble protein; conditions: both partners purified
T1 construct: Merozoite surface protein 1 (MSP-1), Plasmodium falciparum 3D7, aa 1052-1664, amplified from 3D7 cDNA and cloned in pET28b (NcoI/XhoI); Cloning in pET28b between NcoI and XhoI would give a C-terminal His6 (surmised); also called rPfMSP-1_(65); source: E. coli BL21, soluble, purified (Ni-NTA)
T1 sequence: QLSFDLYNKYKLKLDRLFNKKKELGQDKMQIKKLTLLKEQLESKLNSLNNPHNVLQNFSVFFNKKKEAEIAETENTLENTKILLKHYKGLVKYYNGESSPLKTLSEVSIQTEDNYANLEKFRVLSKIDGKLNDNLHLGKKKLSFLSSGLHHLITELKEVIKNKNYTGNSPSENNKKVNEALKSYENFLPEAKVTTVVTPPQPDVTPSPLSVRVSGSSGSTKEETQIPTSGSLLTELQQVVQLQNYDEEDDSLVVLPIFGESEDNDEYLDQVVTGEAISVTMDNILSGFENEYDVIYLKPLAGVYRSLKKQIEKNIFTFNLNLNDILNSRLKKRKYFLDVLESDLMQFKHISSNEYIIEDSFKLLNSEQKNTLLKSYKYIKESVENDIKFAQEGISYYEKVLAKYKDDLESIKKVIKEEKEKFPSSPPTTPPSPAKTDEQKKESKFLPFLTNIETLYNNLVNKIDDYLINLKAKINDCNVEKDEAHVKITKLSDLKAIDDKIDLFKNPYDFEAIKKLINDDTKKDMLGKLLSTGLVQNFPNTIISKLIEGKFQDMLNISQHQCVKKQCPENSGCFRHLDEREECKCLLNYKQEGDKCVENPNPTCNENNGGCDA

[2] = molecular target: B1; assay: SPR; BIACORE 2000, 37 °C, HBS-EP buffer; GLURP R2 immobilised (up to 400 RU) on CM5 chip; Pfs38 injected at increasing concentrations, 20 µL/min; 1:1 Langmuir fit; conditions: both partners purified

B1
binding result [1]: binds

B2: recombinant GLURP R2 (domain or fragment)
chain: DGPVPSKPFEEIEKVDVQPKIVDLQIIEPNFVDSQPNPQEPVEPSFVKIEKVPSEENKHASVDPEVKEKENVSEVVEEKQNSQESVEEIPVNEDEFEDVHTEQLDLDHKTVDPEIVEVEEIPSELHENEVAHPEIVEIEEVFPEPNQNNEFQEINEDDKSAHIQHEIVEVEEILPEDDKNEKVEHEIVEVEEILPEDKNEKGQHEIVEVEEILPEDDKNEKVEHEIVEVEEILPEDKNEKGQHEIVEVEEILPEDKNEKVEHEIVEVEEILPEDKNEKGQHEIVEVEEILPEDKNEKVQHEIVEVEEILPEDKNEKGQHEIVEVEEILPEEDKNEKGQHEIVEVEEILPEDKNEKVQHEIVEVEEILPEDKNEKVQHEIVEVEEILPEIVEIEEVPSQTNNNENIETIKPEEKKNEFSVEEKAIPQEPVVPTLNENENVTPKPSEGESTKPDIVQIKIVQENKPNKKETPVVDG
modifications: Limits are not printed. The conventional GLURP R2 fragment (705-1178, F32 strain, 1271-aa GLURP) is assumed. The 3D7 orthologue is Q8IJ56.
Kd [2]: 26 nM
